Here are results for 2 molecules from patent CN114456266A (dated 2022).

In assay [1] the target is T1, RAD21*M (predicted separase cleavage fragment of RAD21, recombinant, expressed in HEK-293 cells) (UniProt O60216 173-450).
T1 construct: domain: RAD21*M; Transiently expressed from a plasmid in HEK-293
T1 sequence (looked up): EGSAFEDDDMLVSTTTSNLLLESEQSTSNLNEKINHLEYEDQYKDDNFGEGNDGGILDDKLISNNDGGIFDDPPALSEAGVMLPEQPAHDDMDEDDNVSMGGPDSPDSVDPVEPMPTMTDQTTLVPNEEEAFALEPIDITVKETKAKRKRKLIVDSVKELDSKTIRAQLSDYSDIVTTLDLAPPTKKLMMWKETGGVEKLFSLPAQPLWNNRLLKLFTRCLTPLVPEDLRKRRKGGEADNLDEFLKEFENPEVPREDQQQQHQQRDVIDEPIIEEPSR
The assay can be described thus: immunoprecipitation by the standard ChIP procedure of recombinant protein from HEK-293 extracts.

The target in assay [2] is T2, GST fusion with RAD21 cleavage site 2 peptide IEEPSR at the COOH terminus (also: fused to GST at N-terminal side).
T2 construct: E. coli extract of GST fused to the peptide near the RAD21 cleavage site; also called 肽段IEEPSR(切割位点2); not shown: GST (glutathione S-transferase) fusion partner, expressed in E. coli
T2 chain: {GST}-IEEPSR
The assay can be described thus: immunoblot, hybridoma ascites on E. coli extracts of GST-peptide fusions. (Immunoblotting shows a protein as a band on a membrane.)

Assay [3] concerns the target T3, GST fusion with REC8 cleavage site 2 peptide PSEIEVPR at the COOH terminus (also: fused to GST at N-terminal side).
T3 construct: not shown: GST (glutathione S-transferase) fusion partner, expressed in E. coli
T3 chain: {GST}-PSEIEVPR
Described as above.

Ends that are not written are not given here.

B1: 抗RAD21新表位单克隆抗体IB22-S (antibody, mouse IgG2a, kappa, V domains shown)
VH: EVQLVESGGGLVQPRGSLKLSCAASGFTFNNYAMNWVRQAPGKGLEWVARIRSKSKNYAIYYADSVKDRFTISRDDSQTMLYLQMNNLKTEDTGMYYCVAPSYSGSSPFAYWGQGTLVTVSA
VL: DVLMTQTPLSLPVSLGDQASISCRSSQSFVHSNGNTYLEWYLQKPGQSPKLLIYKVSNRFSGVPDRFSGSGSGTDFTLKISRVEAEDLGVYYCFQGSHVPFTFGSGTKLEIKR
notes: Mouse hybridoma antibody (ascites used in blots); also called 1B22s
As for B1, the binding result in assay [1] and in assay [2] was “binds” each time.

B2: 抗REC8新表位单克隆抗体IE22-D (antibody, V domains shown)
VH: EVQLQQSGAEVVKPGASVKLSCTASGFNIKDTYMHWVNQRPEQGLEWIGRNDPANGNSKYDPKFQGKATITADTSSNTAYLQLSSLTSEDTAVYYCARGVRQGAWFAYWGQGTLVTVSA
VL: DVLMTQTPLSLPVSLGDQASISCRSSQSIVHSNGNTYLEWYLQKPGQSPKLLIYKVSNRFSGVPDRFSGSGSGTDFTLKISRVEAEDLGVYYCFQGSHVFTFGAGTKLELKR
notes: Mouse hybridoma antibody (ascites used in blots); also called 1E22d
Turning to B2, the binding result in assay [3] is given as “binds”.
